Tests used:
Experiment in all cases: spectrophotometric, decrease in A260
Conditions in all cases: 50 mM Tris-HCl, pH 7.5, 0.1 mM MnCl2, 25 °C
[1] = substrate: O=C(O)/C=C\C=C/C(=O)O; format: biochemical, Pseudomonas protegens
[2] = substrate: O=C(O)/C=C\C=C/C(=O)O; format: biochemical, Mycolicibacterium smegmatis
[3] = substrate: O=C(O)/C=C\C=C/C(=O)O; format: biochemical, Pseudomonas putida

B1: MLE-1 from Pseudomonas fluorescens (MLE-PF, syn-MLE) (Pseudomonas protegens Pf-5) (protein)
chain: MHASAIESIETIIVDLPTIRPHKLAMHTMQNQTLVLIRLRCADGIEGLGESTTIGGLAYGNESPDSIKTNIDRFVAPLLIGQDASNINAAMLRLEQSIRGNTFAKSGIESALLDAQGKRLGLPVSELLGGRVRDALPVAWTLASGDTAKDIAEAQKMLDLRRHRIFKLKIGAGEVDRDLAHVIAIKKALGDSASVRVDVNQAWDEAVALRACRILGGNGIDLIEQPISRNNRAGMVRLNASSPAPIMADESIECVEDAFNLAREGAASVFALKIAKNGGPRATLRTAAIAEAAGIGLYGGTMLEGGIGTLASAHAFLTLNKLSWDTELFGPLLLTEDILAEPPVYRDFHLHVSKAPGLGLSLDEERLAFFRRD
[1]
  Km: (1.6 ± 0.2) × 10^-5 M
  kcat: 110 ± 2 s⁻¹
  kcat/Km: 7e+06 M⁻¹ s⁻¹

B2: MLE-2 from Mycobacterium smegmatis (MLE-MS, anti-MLE) (Mycolicibacterium smegmatis MC2 155) (protein)
chain: MKIVAIGAIPFSIPYTKPLRFASGEVHAAEHVLVRVHTDDGIVGVAEAPPRPFTYGETQTGIVAVIEQYFAPALIGLTLTEREVAHTRMARTVGNPTAKAAIDMAMWDALGQSLRLSVSEMLGGYTDRMRVSHMLGFDDPVKMVAEAERIRETYGINTFKVKVGRRPVQLDTAVVRALRERFGDAIELYVDGNRGWSAAESLRAMREMADLDLLFAEELCPADDVLSRRRLVGQLDMPFIADESVPTPADVTREVLGGSATAISIKTARTGFTGSTRVHHLAEGLGLDMVMGNQIDGQIGTACTVSFGTAFERTSRHAGELSNFLDMSDDLLTVPLQISDGQLHRRPGPGLGIEIDPDKLAHYRTDN
[2]
  Km: (5.6 ± 1) × 10^-4 M
  kcat: 78 ± 6 s⁻¹
  kcat/Km: 140000 M⁻¹ s⁻¹

B3: MLE-1 from Pseudomonas putida (Pseudomonas putida) (protein)
chain: TSVLIERIEAIIVHDLPTIRPPHKLAMHTMQTQTLVLIRVRCSDGVEGIGEATTIGGLAYGYESPEGIKANIDAHLAPALVGLPADNINAAMLKLDKLAKGNTFAKSGIESALLDAQGKRLGLPVSELLGGRVRDSLEVAWTLASGDTARDIAEAQHMLEIRRHRVFKLKIGANPLAQDLKHVVAIKRELGDSASVRVDVNQYWDESQAIRACQVLGDNGIDLIEQPISRINRSGQVRLNQRSPAPIMADESIESVEDAFSLAADGAASIFALKIAKNGGPRAVLRTAQIAEAAGIALYGGTMLEGSIGTLASAHAFLTLRQLTWGTELFGPLLLTEEIVNEPPQYRDFQLHIPRTPGLGLTLDEQRLARFARR
[3]
  Km: (5.4 ± 0.5) × 10^-4 M
  kcat: 11 ± 0.5 s⁻¹
  kcat/Km: 20000 M⁻¹ s⁻¹

Reference: PMC2746992
